Data published in the supplement of paper PMC9170038.

Test system: K4 kissing-loop RNA reporter
Assay: apparent KD of K4 kissing-loop reporter; higher = weaker reporter binding
Details: Eterna round: R107; input ligand: theophylline 20 uM
Experimental: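 RNA-MaP round R107: designed RNA switches with theophylline, tryptophan, arginine or FMN aptamers are transcribed on-chip within common flanks. They are titrated with a labelled K4 kissing-loop RNA reporter in RNA-MaP buffer (100 mM Tris pH 7.5, 80 mM KCl, 4 mM MgCl2), without ligand or with the indicated ligand. Median apparent KD per design.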
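Note: bound reporter read as fluorescence of individual clusters on recovered sequencing chips by microscopy, with normalized cluster intensities fitted with a binding model.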

| Sequence | apparent KD of K4 kissing-loop reporter [nM] |
| --- | --- |
| GUGCGGUGGAGGCUACCGCUACUCUGAGAAGGAGCGCAGAAGACUGCAGGUAGGUCGCUUAGAGCUUGCAGUGAUGUUGCAAGUU [KL-SSArg-A18] | 156 |
| CUUCUUCUUCCAAUCUCGGCCAACACGGGACGAGGACCGGUACGGCCGCCACUCGUGCAGUGAUGUUGCACGAUGGUGACGGAGA [Engebiisso] | 74.7 |
| CCGCCGGUCGGAAGGAGCGCACGCCAGAGUGAUGUUCUGGCGCGGGCACUUUAUGCCCGCGUGCAGGUAGGUCGCCGAUUCUGGC [Mabema] | 446 |
| UGGCGUAGAACCGCCGAAUCGCUGUGAGAAGGAGCGGUAAAAUUGCCAGGUAGGUCGCUCACAGCCUCACAGUGAUGUUGUGGGA [Cequralaza] | 290 |
| GUAUCGCUAGGAGGAUAUUUCAAUUCGCCUAUAAAAGGUGAUACGGAGUGAUGUUCCGAUUUACGGAAAGAAGGCCUAGUGAUAC [FMN B 9] | 262 |
| AACUGUCAAGGACAACAUUACUGAGGUGAUACCAGCAUCGAAAGAUGCCCUUGGCAGCACUAACUUGCAGUGAUGUUGCAAGUAA [BrourdMod 2 - Jieux - Exclusion - Theophylline A] | 197 |
| UGGACGUUAUACAAUAAGUAUAACUGGGAUACCAGUGACGAAAGUCACCCUUGGCAGCUCAACUGCCAGUGAUGUUGGUAGUCCA [Astros-Eli-mod#5] | 235 |
| AGGUCCGAGCCUGCAAAGGCUCGGACCUGUUAGGAUAUGACGUUAUUCAGAAGGGAUGGGUGGAGUGAUGUUCCACCCGCAAGGG [#2 Same State - FMN A Attempt #7 (HarryS)] | 98.4 |
| AAUUUAGUGACGGCCGCCACUAGGGUGAUUUUUUUGUUUGAGUGAUGUUUUGAUGUUUGAUUUUGUAGGACCGGGUUAGGUGAUG [cccmullin] | 364 |
| AGUUCUUGCCGAAGGAGCGAGGCAGAGUGAUGUUCUGCAAAGGUCGAAAGACCUUAACUGCCUCAGGUAGGUCGCGGCAUGAACA [KL-XARG-B23] | 602 |
| GAAGUACAGGCGGCCGCCACUAGUGAUGUUAGUGAUAAAAGAUAUAGUAAAUAUCGGCAUGUAGAUAGGACCGGGCCUGAUGGAG [ggbgmullin] | 236 |

Same assay, conditions: Eterna round: R107; input ligand: tryptophan 2.4 mM

| Sequence | apparent KD of K4 kissing-loop reporter [nM] |
| --- | --- |
| GGCAGAGUGAUGUUCGCCCUUUACCUUGAUACCAGUUCAUCUCAAAACCCUUGGCAGCAAGUGUGUAAGAGCGGUAUUGGUCAAU [theeternabot_exclusion_KL_Theo_A_1] | 339 |
| GGAUCCACCAGUGAUGUUGGAGAAAACUCUAAGGAUAUGACGAAAGUCAGAAGGUAGUAGACUGGACAAAGUCCGGUCGGAUCCA [FmnA 23 U30+A56] | 484 |
| GGGCGCGGCGCGGCCGCCACUGGGCCUGGGCGCUCGCUGAGUGAUGUUCGUCGGCGGCUGGGUCGUAGGACCGGGUGCCGGCUGG [BDazzled - #4 SS Tryptophan B] | 269 |
| UGAUACCAGACGGCCGCCACUUCCGUAAGUCAAAGACUUACCAAGGGAAUCGUCCAGUGAUGUUGGAGGACCGGGUCUGGUAUCU [FiskerMod 6 - Jieux - Exclusion - Tryptophan B] | 788 |
| GCCGUAGAUUGAAGGAGCGCCUUCUUACCAAGAGUGAUGUUCUUUGGUACCAUGUUCAGCAGGCAGGUAGGUCGCAAUCUACGGC | 169 |
| GGUGCUGUCUGUGCCGCCCUCCUCGUCCCUCGAGGACCGGUACGGCCGCCACUCGAGUGAUGUUCGGGUAGCGAUCCCUGCUAGC [Bdazzled - #18 Exc. Tryptophan A] | 256 |
| AGCAGUGAUGUUGCAUUUAUAAAGACCGAUACCAGUAUCGAUAGAUACCCUUGGCAGCGGAUUUCCGCAACGACUAGGAAACUAG [Ex Theophylline A K4 13] | 270 |
| AUUUAGACGAGUGAUGUUCGUGUUAUUACAGAGGAUAUGCGUAAUUGCAGAAGGCUGUAUUUAUAUAUGUUAUGUAGUUUUAAAA [whbob_Ex_FMNA__2th184] | 74.1 |
| UGUGUUUACCUGACUCAGUGAUGUUGAGAAGGAGCGUGCAAACGCACAGGUAGGUCGCUCAACCUAAAUUCAGGUGAGCACUAAA | 406 |
| UAAGAGGACCACUGCAAGAGUCCUCGAAUACGAGGACCGGUACGGCCGCCACUCGAUAAUUUGCAGUGAUGUUGCAAGUAAGAAU [BrourdMod 5 - Jieux - Same State Tryptophan A] | 54.4 |
| CCGGGCGGCCGAAGGAGCGGGCGGACCCGAGUGAUGUUCGGGUGGACCGUGAGGUCCGGUGCCCAGGUAGGUCGCGGUUCCGCCC [#2 Same State - Arginine B Attempt #5 (HarryS)] | 120 |
| UAUUAAUAAUUAUUCUAGUGAUGUUAGAUACGAGGACCGGUACGGCCGCCACUCGCUUAUUGGUUUAUAAAUUUUAUAUUAUUUA [JR_SSTryptoA_Sub017] | 164 |
| CACCGCAACUGAAGGAGCGCGCCAGUGAUGUUGGACGGCUUUGUCAAGGAAACUGCACCGGUGCAGGUAGGUCGCAGUUCGCGGC [Ededisa] | 259 |
| CCCAAAAUAUGCAGUGAUGUUGCAACUGAUACCAGUAUCGAAAGAUACCCUUGGCAGCGGAAAACCGCUACGUAAUUUAAAAGGG [Ex Theophylline A K4 18] | 187 |
| GGCCGGAAGGCGAGCGCUCCCACUCCGGAAGGAGCGCCCGGAAGGGCAGGUAGGUCGCCGGAGUGAUGUUCCGGUGGAGGGCUCG [#2 Exclusion - Arginine A Attempt #19 (Inspired by Omei)] | 70.2 |
| CGAGUGAUGUUCGUUCGUUUAUUUCGUUGACAGGAUAUGCGGAAACGCAGAAGGGUCACCUUUGAGUUAACGGAAUUUACGUUAU [Ex FMN A 27] | 546 |
| CCGCUACCCUCAGGAUAUUAAAUAUUAGUGAUGUUAGUAAACCGAUGGCGAAAGCCAUCGGUAUGUUGAGAAGGGAGGGUAGCGG [whbob_SS_FMNB__2th197] | 880 |
| AUUCAUUUCAGAGGAUAUCGAUGGAGAGUGAUGUUCUCCCAUAGCCAGUGAUGUUGGCUAGCUAUUCGAGAAGGCUGUGGGUGGA [Same State FMN B GF 27] | 208 |
| GCUAUGGUAGGAAGGAGCGCUACUUUGUUUUUACGAGUGAUGUUCGGAAGCAGAGUGUUAAAGCAGGUAGGUCGCCUACUAUAGC [Arginine B K4 20] | 197 |
| ACACUAUCGUCAUAGACGGUAGUGAAAGCUCAGGAUAUGAGUGAUGUUAGAAGGGAGUAAAUCUUAGGUAUCGAAUAGAUACCAA [FmnA 7 #K4BetweenAptamer #OpenEnded] | 416 |
| UCCUAGGCUCGAAAGAGCCUAGGUAAGACUCAGGAUAUCUGGAAACAGAGAAGGGAGCUACUAGUGAUGUUAGGAAUUCCCAUUU | 85.1 |
| UUAAUAAUUCAAGGAUAUGUUUUCUAUUUCGAGUGAUGUUCGGAAUUAAUAAAUUUAAAAGAUUAUACAGAAGGUGAUGGAUAGU [Cynwulf-mod#4] | 90.3 |

| Sequence | apparent KD of K4 kissing-loop reporter [nM] |
| --- | --- |
| GACAUCUAUCGCCGAUAGUGUUUAUCUUGGGAGGAUAUGUCAGCGGACAGAAGGCCCAGUGAUGUUGGGUAGAUGACCGUUGCUU [Edbiza] | 120 |
| AGUGGACGUGUCCGGAGUGAUGUUCCGGAUACCAGACACGAAAGUGUCCCUUGGCAGCCGGAGUGAUGUUCCGGCGUUCACUAAA [Omei KL Theo A Exc B v1] | 257 |
| CUGGGUUGACGAAAAGUCAACAAAAGAGAAGGAGCGCACGAAAGUGCAGGUAGGUCGCUCAAUCCAGUGAUGUUGGGUCAUCCAG [#SwitchBubble 14 #K4Late] | 869 |
| GGAUAGGACAGAGGAUAUGGUAGUGAUGUUACCAAACUGGUUACUAAUGUCAGAAAACUGGCAAAUCCAGAAGGCUGUCCUAUCG [KL-XFMN-B13] | 82.3 |
| GUCUCCGUCGAUGAUACCAGUCGAUGUACGUCAGGUACCCUUUGAGUGAUGUUCAGAUUAGACCCUUGGCAGCAUAUCGAGGCUC [theeternabot_exclusion_KL_Theo_B_24] | 303 |
| GGGAACUCUUACGAUACCAGCCGGAGUGAUGUUCCGUGCUUGGACGUAGUAACCCGCACCGGCCCUUGGCAGCGUGGAUCUUGUG [Esgeonin] | 83.5 |
| UCCUAGGCUCGAAAGAGCCUAGGAUUAUCUCAGGAUAUCCGGAAACGGAGAAGGGAGAAACUAGUGAUGUUAGGGAUUCCCUAUU | 137 |
| UUUGGUUUCUCGGCCGCCACUCGUUGUCUAUGGGCUUCAGGGAUAUAGUGAUGUUAUGUAUAGAAGAGGACCGGGAGAAGGUUUU [ExTryptoB.Dv] | 161 |
| GUGGGCUCGGGAGGAUAUGAGUCUAGUGAUGUUAGGCGGUCCAUGCGCGUGGCGCGUUAUGCCCUUUUAGAAGGCCCGAGCCCUC [#2 Exclusion - FMN B Attempt #24 (HarryS)] | 85.3 |
| GGUGACGGCCAGGAGUGAUGUAUAGAAUAGCGAGGACCGGUACGGCCGCCACUCGUGAAGAAAAGGGAGUGAUGUUCCGUAAUGU [Kazoo] | 49.5 |
| GUGCGGUGGAGGCUACCGCUACUCUGAGAAGGAGCGCAGAAGACUGCAGGUAGGUCGCUUAGAGCUUGCAGUGAUGUUGCAAGUU [KL-SSArg-A18] | 176 |
| CUUCUUCUUCCAAUCUCGGCCAACACGGGACGAGGACCGGUACGGCCGCCACUCGUGCAGUGAUGUUGCACGAUGGUGACGGAGA [Engebiisso] | 113 |
| CCGCCGGUCGGAAGGAGCGCACGCCAGAGUGAUGUUCUGGCGCGGGCACUUUAUGCCCGCGUGCAGGUAGGUCGCCGAUUCUGGC [Mabema] | 417 |
| UGGCGUAGAACCGCCGAAUCGCUGUGAGAAGGAGCGGUAAAAUUGCCAGGUAGGUCGCUCACAGCCUCACAGUGAUGUUGUGGGA [Cequralaza] | 212 |
| GUAUCGCUAGGAGGAUAUUUCAAUUCGCCUAUAAAAGGUGAUACGGAGUGAUGUUCCGAUUUACGGAAAGAAGGCCUAGUGAUAC [FMN B 9] | 273 |
| AACUGUCAAGGACAACAUUACUGAGGUGAUACCAGCAUCGAAAGAUGCCCUUGGCAGCACUAACUUGCAGUGAUGUUGCAAGUAA [BrourdMod 2 - Jieux - Exclusion - Theophylline A] | 206 |
| UGGACGUUAUACAAUAAGUAUAACUGGGAUACCAGUGACGAAAGUCACCCUUGGCAGCUCAACUGCCAGUGAUGUUGGUAGUCCA [Astros-Eli-mod#5] | 161 |
| AGGUCCGAGCCUGCAAAGGCUCGGACCUGUUAGGAUAUGACGUUAUUCAGAAGGGAUGGGUGGAGUGAUGUUCCACCCGCAAGGG [#2 Same State - FMN A Attempt #7 (HarryS)] | 113 |
| AAUUUAGUGACGGCCGCCACUAGGGUGAUUUUUUUGUUUGAGUGAUGUUUUGAUGUUUGAUUUUGUAGGACCGGGUUAGGUGAUG [cccmullin] | 262 |
| AGUUCUUGCCGAAGGAGCGAGGCAGAGUGAUGUUCUGCAAAGGUCGAAAGACCUUAACUGCCUCAGGUAGGUCGCGGCAUGAACA [KL-XARG-B23] | 580 |
| GAAGUACAGGCGGCCGCCACUAGUGAUGUUAGUGAUAAAAGAUAUAGUAAAUAUCGGCAUGUAGAUAGGACCGGGCCUGAUGGAG [ggbgmullin] | 226 |
